Measured values: publication PMC5716075, “Conserved asymmetry underpins homodimerization of Dicer-associated double-stranded RNA-binding proteins” (Nucleic Acids Research, 2017)

B1: PACT-Ext-D3 (PACT residues 208-313, dsRBD 3 with the conserved N-terminal extension), wild type [human] / itself (parent)
chain: GHSLGCTWHSLRNSPGEKINLLKRSLLSIPNTDYIQLLSEIAKEQGFNITYLDIDELSANGQYQCLAELSTSPITVCHGSGISCGNAQSDAAHNALQYLKIIAERK
B2: Loqs-D3 (Loquacious residues 392-463, dsRBD 3), wild type [Drosophila] / itself (parent)
chain: IDYIKLLGEIATENQFEVTYVDIEEKTFSGQFQCLVQLSTLPVGVCHGSGPTAADAQRHAAQNALEYLKIMT
B3: PACT-D3 (PACT residues 239-313, core dsRBD 3), wild type [human] / itself (parent)
chain: TDYIQLLSEIAKEQGFNITYLDIDELSANGQYQCLAELSTSPITVCHGSGISCGNAQSDAAHNALQYLKIIAERK

Variants of: B1
Experiment: SEC-MALLS
Details: with itself

screen value [kDa] | Variant
12.3 | GHSLGCTWHSLRNSPGEKINLLKRSLLSIPNTDYIQLLSEIAKEQGFNITYLDIDELSANGQYQCRAELSTSPITVCHGSGISCGNAQSDAAHNALQYLKIIAERK [chain 1 L66R]

Variants of: B2
Experiment: SEC-MALLS
Details: with itself

screen value [kDa] | Variant
8 | IDYIKLLGEIATENQFEVTYVDIEEKTFSGQFQCRVQLSTLPVGVCHGSGPTAADAQRHAAQNALEYLKIMT [chain 1 L35R]

Variants of: B3
Experiment: SEC-MALLS
Details: with itself

screen value [kDa] | Variant
8.8 | TDYIQLLSEIAKEQGFNITYLDIDELSANGQYQCRAELSTSPITVCHGSGISCGNAQSDAAHNALQYLKIIAERK [chain 1 L35R]
